Experimental data from patent US9267116B2, “Amino acid dehydrogenase, and process for producing L-amino acid, 2-oxo acid or D-amino acid” (KANEKA CORPORATION, priority 2008, dated 2016).

Experiment: Properties of the purified amino acid dehydrogenase (specific activity, action temperature and pH), NADH decline at 340 nm
Format: biochemical, Rhodococcus qingshengii strain KNK2108
Settings: 30° C., pH 9.0, phenylpyruvic acid substrate; 1 unit = 1 μmol NADH consumed in 1 minute
Procedure: In the embodiments, the amino acid dehydrogenase activity of the polypeptide can be measured, for example, based on the rate of decline in the absorbance at a wavelength of 340 nm when 1.2 mL of 0.5 M NH3/NH4Cl buffer (pH 9.0), 0.2 mL of 0.1 M sodium carbonate buffer (pH 9.0) containing 3 mM NADH coenzyme, and 0.1 mL of an appropriately diluted enzyme solution are added to 1.5 mL of 0.1 M sodium carbonate buffer (pH 9.0) containing 10 mM phenylpyruvic acid as substrate and a reaction is run for 1 minute at 30° C. In the embodiments, the amino acid dehydrogenase activity was measured using this method unless indicated otherwise.
The activity of the amino acid dehydrogenase was measured based on the rate of decline in the absorbance at a wavelength of 340 nm when 1.2 mL of 0.5 M NH3/NH4Cl buffer (pH 9.0), 0.2 mL of 0.1 M sodium carbonate buffer (pH 9.0) that contained 3 mM NADH coenzyme, and 0.1 mL of the appropriately diluted enzyme solution were added to 1.5 mL of 0.1 M sodium carbonate buffer (pH 9.0) that contained 10 mM phenylpyruvic acid substrate and a reaction was carried out for 1 minute at 30° C. 1 unit is defined here as the quantity of enzyme that consumed 1 μmol NADH in 1 minute. The protein was quantified by the Bradford method using BSA as the reference protein.
The action temperature range and the optimal temperature were examined. […]

B1: purified amino acid dehydrogenase: amino acid dehydrogenase purified from Rhodococcus qingshengii strain KNK2108 (Example 1), SEQ ID NO:1, classified as phenylalanine dehydrogenase (protein, listed as Rhodococcus qingshengii)
chain: MSIDDELRWDGELTVTRHDRETGTTFVIRIDSTRLGPASGGTRAAHYPSIGHALADAGKLAGAMTLKMAVSDLPMGGGKSVIALPAPRNQIDAATWSRILGIHAENIDKLEGNYWTGPDVNTNSSDMDQLSRTTRYVFGRSVDKGGAGSSAHATALGVFEAMKATARRRGLGTLDGRTVLVQGLGAVGGDVVRLAAQAGARLLVADTDPQRLEAASLAGHTVVPAGEVLRTPCDLFAPCAMGGIIDFAAAASIPTLAVAGAANNILTDAAAGEVLRDRGVLCAPDFVANAGGAFHLVGREVLGWNEDYVVERTRGIGRTLDEVYSLSEERGITTEAAALMLARARLSPASTAAAATSAAPAAAAASPA
With B1 the specific activity was 204 units/mg protein.
